Laboratory results from US20240150451A1.

Target: PHF-tau (paired helical filament tau; sarcosyl insoluble prep from human AD brain) (human) (UniProt P10636)
Assay: SPR (ProteOn), mAb on PHF-tau, bivalent analyte fit; apparent affinity (avidity)

Chain of PHF-tau (paired helical filament tau; sarcosyl insoluble prep from human AD brain) (human) (P10636 other isoform, or with tags, fused parts or gaps limits assumed): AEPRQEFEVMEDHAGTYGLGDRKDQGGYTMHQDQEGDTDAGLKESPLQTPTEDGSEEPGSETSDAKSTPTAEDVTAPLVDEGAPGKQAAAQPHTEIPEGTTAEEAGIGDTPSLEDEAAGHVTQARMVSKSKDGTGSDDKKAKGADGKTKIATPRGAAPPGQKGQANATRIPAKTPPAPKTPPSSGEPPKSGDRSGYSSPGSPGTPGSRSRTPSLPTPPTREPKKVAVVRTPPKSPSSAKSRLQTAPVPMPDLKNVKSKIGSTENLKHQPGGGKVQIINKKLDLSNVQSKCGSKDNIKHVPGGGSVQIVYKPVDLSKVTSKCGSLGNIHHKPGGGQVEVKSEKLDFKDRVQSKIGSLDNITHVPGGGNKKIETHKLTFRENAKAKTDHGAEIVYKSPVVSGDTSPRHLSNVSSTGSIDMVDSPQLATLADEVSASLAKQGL

HT7 (reference mAb) (antibody) showed a Kd of 0.291 nM.
